Laboratory results published in patent publication US20140105889A1 (published 2014).

T1: human FcγRIIb (human, UniProt P31994 43-217)
T1 construct: also called FcγIIB
T1 sequence: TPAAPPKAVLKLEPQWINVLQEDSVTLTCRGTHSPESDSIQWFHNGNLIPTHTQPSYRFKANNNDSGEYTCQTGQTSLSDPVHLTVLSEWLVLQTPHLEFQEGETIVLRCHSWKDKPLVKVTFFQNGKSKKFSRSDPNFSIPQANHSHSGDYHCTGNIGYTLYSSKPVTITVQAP

T2: human FcγRIIa type R (human, UniProt P12318 36-217)
T2 construct: also called FcγRIIaR; FcγRIIa(R)
T2 chain: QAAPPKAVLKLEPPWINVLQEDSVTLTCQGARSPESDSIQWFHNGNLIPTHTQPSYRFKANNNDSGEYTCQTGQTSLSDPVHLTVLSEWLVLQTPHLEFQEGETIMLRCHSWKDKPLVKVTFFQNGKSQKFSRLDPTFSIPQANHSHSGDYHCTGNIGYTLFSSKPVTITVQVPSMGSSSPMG

T3: human FcγRIIa type H (human, UniProt P12318 36-217)
T3 construct: Whole entry named for FcγRIIa allotype H131 (AAH20823.1); also called FcγRIIaH; FcγRIIa(H)
T3 sequence: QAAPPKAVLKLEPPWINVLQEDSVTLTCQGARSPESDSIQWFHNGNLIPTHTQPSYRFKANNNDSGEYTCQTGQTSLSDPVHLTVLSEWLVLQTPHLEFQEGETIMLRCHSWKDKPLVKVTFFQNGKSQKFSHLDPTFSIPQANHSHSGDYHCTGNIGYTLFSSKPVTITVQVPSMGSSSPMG

T4: human FcγRIIa type H (human, UniProt P12318 36-217)
T4 construct: also called FcgRIIaH; FcγRIIa(H)
T4 sequence: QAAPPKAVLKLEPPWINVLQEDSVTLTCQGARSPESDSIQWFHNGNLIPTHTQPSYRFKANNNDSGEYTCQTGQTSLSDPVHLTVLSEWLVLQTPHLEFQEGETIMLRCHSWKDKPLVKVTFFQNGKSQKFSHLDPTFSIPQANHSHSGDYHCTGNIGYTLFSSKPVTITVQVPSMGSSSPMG


Tests used:
[1] = biological target: T5, human FcγRIa (human, UniProt P12314 16-292, limits assumed); assay: SPR (Biacore), FcγR over captured antibody; amount bound relative to IL6R-BF648/IL6R-L x100
T5 construct: also called CD64
T5 sequence (P12314 16-292 limits assumed): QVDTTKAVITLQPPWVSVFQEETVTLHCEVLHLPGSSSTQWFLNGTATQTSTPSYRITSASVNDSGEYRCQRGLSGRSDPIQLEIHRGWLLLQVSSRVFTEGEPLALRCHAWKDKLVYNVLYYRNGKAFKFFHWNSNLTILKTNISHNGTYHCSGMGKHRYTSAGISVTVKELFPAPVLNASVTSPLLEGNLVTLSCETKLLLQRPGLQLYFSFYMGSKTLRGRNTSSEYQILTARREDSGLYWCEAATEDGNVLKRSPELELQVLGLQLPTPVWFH

[2] = biological target: T1, human FcγRIIb; assay: as above
[3] = biological target: T2, human FcγRIIa type R; assay: as above
[4] = biological target: T3, human FcγRIIa type H; assay: as above
[5] = biological target: T6, human FcγRIIIa type V (human, UniProt P08637 17-208, limits assumed); assay: as above
T6 construct: also called FcγRIIIaV; FcγRIIIa(V)
T6 sequence (P08637 other isoform, or with tags, fused parts or gaps limits assumed): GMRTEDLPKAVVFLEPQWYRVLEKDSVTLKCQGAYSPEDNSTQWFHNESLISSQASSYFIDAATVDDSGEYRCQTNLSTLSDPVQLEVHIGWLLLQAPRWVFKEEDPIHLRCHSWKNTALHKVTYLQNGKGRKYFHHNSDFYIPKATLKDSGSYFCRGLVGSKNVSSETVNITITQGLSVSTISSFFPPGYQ

[6] = biological target: T7, human FcγRIa (human, UniProt P12314 16-292, limits assumed); assay: SPR (Biacore); binding amount divided by that of control IL6R-BF648/IL6R-L, x100
T7 construct: also called FcgRIa; CD64
T7 sequence (P12314 16-292 limits assumed): as the sequence (P12314 16-292 limits assumed) above
Method: (§1) According to the following method, relative binding activities were calculated for the results of analyzing interactions with the respective FcγRs.

[7] = biological target: T8, human FcγRIIIa type V (human, UniProt P08637 17-208, limits assumed); assay: as above
T8 construct: The assay used allotype V158; also called FcgRIIIaV; FcγRIIIa(V)
T8 sequence (P08637 other isoform, or with tags, fused parts or gaps limits assumed): as the sequence (P08637 other isoform, or with tags, fused parts or gaps limits assumed) above
Method: as §1

[8] = biological target: T4, human FcγRIIa type H; assay: as above
Method: as §1

| Binder | relative binding [1] | relative binding [2] | relative binding [3] | relative binding [4] | relative binding [5] | relative binding activity [6] | relative binding activity [7] | relative binding activity [8] |
| --- | --- | --- | --- | --- | --- | --- | --- | --- |
| IL6R-BP116/IL6R-L (antibody, human IgG1, copies: 2 + 2) heavy: QVQLQESGPGLVKPSETLSLTCAVSGHSISHDHAWSWVRQPPGEGLEWIGFISYSGITNYNPSLQGRVTISRDNSKNTLYLQMNSLRAEDTAVYYCARSLARTTAMDYWGEGTLVTVSSASTKGPSVFPLAPSSKSTSGGTAALGCLVKDYFPEPVTVSWNSGALTSGVHTFPAVLQSSGLYSLSSVVTVPSSSLGTQTYICNVNHKPSNTKVDKKVEPKSCDKTHTCPPCPAPELLGGDSVFLFPPKPKDTLMISRTPEVTCVVVDVSHEDPEVKFNWYVDGVEVHNAKTKPREEQYNSTYRVVSVLTVLHQDWLNGKEYKCKVSNTALPAPIEKTISKAKGQPREPQVYTLPPSRDELTKNQVSLTCLVKGFYPSDIAVEWESNGQPENNYKTTPPVLDSDGSFFLYSKLTVDKSRWQQGNVFSCSVMHEALHNHYTQESLSLSP light: DIQMTQSPSSLSASVGDRVTITCRASQDISSYLNWYQQKPGKAPKLLIYYTSRLHSGVPSRFSGSGSGTDFTFTISSLQPEDIATYYCQQGNTLPYTFGQGTKVEIK | 110 relative value (IL6R-BF648/IL6R-L = 100) | 108 relative value (IL6R-BF648/IL6R-L = 100) | 126 relative value (IL6R-BF648/IL6R-L = 100) | 110 relative value (IL6R-BF648/IL6R-L = 100) | 114 relative value (IL6R-BF648/IL6R-L = 100) | – | – | – |
| IL6R-BF648/IL6R-L (antibody, human IgG1, IL6R-B3 with P238D; copies: 2 + 2) heavy: not shown light: DIQMTQSPSSLSASVGDRVTITCRASQDISSYLNWYQQKPGKAPKLLIYYTSRLHSGVPSRFSGSGSGTDFTFTISSLQPEDIATYYCQQGNTLPYTFGQGTKVEIK | 100 relative value (IL6R-BF648/IL6R-L = 100) | 100 relative value (IL6R-BF648/IL6R-L = 100) | 100 relative value (IL6R-BF648/IL6R-L = 100) | 100 relative value (IL6R-BF648/IL6R-L = 100) | 100 relative value (IL6R-BF648/IL6R-L = 100) | – | – | – |
| IL6R-BP118/IL6R-L (antibody, human IgG1, copies: 2 + 2) heavy: QVQLQESGPGLVKPSETLSLTCAVSGHSISHDHAWSWVRQPPGEGLEWIGFISYSGITNYNPSLQGRVTISRDNSKNTLYLQMNSLRAEDTAVYYCARSLARTTAMDYWGEGTLVTVSSASTKGPSVFPLAPSSKSTSGGTAALGCLVKDYFPEPVTVSWNSGALTSGVHTFPAVLQSSGLYSLSSVVTVPSSSLGTQTYICNVNHKPSNTKVDKKVEPKSCDKTHTCPPCPAPELLGGDSVFLFPPKPKDTLMISRTPEVTCVVVDVSHEDPEVKFNWYVDGVEVHNAKTKPREEQYNSTYRVVSVLTVLHQDWLNGKEYKCKVSNSALPAPIEKTISKAKGQPREPQVYTLPPSRDELTKNQVSLTCLVKGFYPSDIAVEWESNGQPENNYKTTPPVLDSDGSFFLYSKLTVDKSRWQQGNVFSCSVMHEALHNHYTQESLSLSP light: DIQMTQSPSSLSASVGDRVTITCRASQDISSYLNWYQQKPGKAPKLLIYYTSRLHSGVPSRFSGSGSGTDFTFTISSLQPEDIATYYCQQGNTLPYTFGQGTKVEIK | 101 relative value (IL6R-BF648/IL6R-L = 100) | 104 relative value (IL6R-BF648/IL6R-L = 100) | 132 relative value (IL6R-BF648/IL6R-L = 100) | 128 relative value (IL6R-BF648/IL6R-L = 100) | 144 relative value (IL6R-BF648/IL6R-L = 100) | – | – | – |
| IL6R-BP190/IL6R-L (antibody, human IgG1, The common L chain is IL6R-L; copies: 2 + 2) heavy: QVQLQESGPGLVKPSETLSLTCAVSGHSISHDHAWSWVRQPPGEGLEWIGFISYSGITNYNPSLQGRVTISRDNSKNTLYLQMNSLRAEDTAVYYCARSLARTTAMDYWGEGTLVTVSSASTKGPSVFPLAPSSKSTSGGTAALGCLVKDYFPEPVTVSWNSGALTSGVHTFPAVLQSSGLYSLSSVVTVPSSSLGTQTYICNVNHKPSNTKVDKKVEPKSCDKTHTCPPCPAPELLGDDSVFLFPPKPKDTLMISRTPEVTCVVVDVSDEDGEVKFNWYVDGVEVHNAKTKPREEQYNSTYRVVSVLTVLHQDWLNGKEYKCKVSNKALPKPIEKTISKAKGQPREPQVYTLPPSRDELTKNQVSLTCLVKGFYPSDIAVEWESNGQPENNYKTTPPVLDSDGSFFLYSKLTVDKSRWQQGNVFSCSVMHEALHNHYTQESLSLSP light: DIQMTQSPSSLSASVGDRVTITCRASQDISSYLNWYQQKPGKAPKLLIYYTSRLHSGVPSRFSGSGSGTDFTFTISSLQPEDIATYYCQQGNTLPYTFGQGTKVEIK | – | – | – | – | – | 50 % of IL6R-BF648/IL6R-L | 155 % of IL6R-BF648/IL6R-L | 224 % of IL6R-BF648/IL6R-L |
| IL6R-G1d/IL6R-L (antibody, human IgG1, Anti-human IL-6 receptor IgG1 with G1d constant region (C-terminal Gly and Lys removed); also called IgG1; copies: 2 + 2) heavy: not shown light: DIQMTQSPSSLSASVGDRVTITCRASQDISSYLNWYQQKPGKAPKLLIYYTSRLHSGVPSRFSGSGSGTDFTFTISSLQPEDIATYYCQQGNTLPYTFGQGTKVEIK | 140 relative value (IL6R-BF648/IL6R-L = 100) | 62 relative value (IL6R-BF648/IL6R-L = 100) | 650 relative value (IL6R-BF648/IL6R-L = 100) | 1670 relative value (IL6R-BF648/IL6R-L = 100) | 3350 relative value (IL6R-BF648/IL6R-L = 100) | – | – | – |
| IL6R-BP119/IL6R-L (antibody, human IgG1, copies: 2 + 2) heavy: QVQLQESGPGLVKPSETLSLTCAVSGHSISHDHAWSWVRQPPGEGLEWIGFISYSGITNYNPSLQGRVTISRDNSKNTLYLQMNSLRAEDTAVYYCARSLARTTAMDYWGEGTLVTVSSASTKGPSVFPLAPSSKSTSGGTAALGCLVKDYFPEPVTVSWNSGALTSGVHTFPAVLQSSGLYSLSSVVTVPSSSLGTQTYICNVNHKPSNTKVDKKVEPKSCDKTHTCPPCPAPELLGGDSVFLFPPKPKDTLMISRTPEVTCVVVDVSHEDPEVKFNWYVDGVEVHNAKTKPREEQYNSTYRVVSVLTVLHQDWLNGKEYKCKVSNMALPAPIEKTISKAKGQPREPQVYTLPPSRDELTKNQVSLTCLVKGFYPSDIAVEWESNGQPENNYKTTPPVLDSDGSFFLYSKLTVDKSRWQQGNVFSCSVMHEALHNHYTQESLSLSP light: DIQMTQSPSSLSASVGDRVTITCRASQDISSYLNWYQQKPGKAPKLLIYYTSRLHSGVPSRFSGSGSGTDFTFTISSLQPEDIATYYCQQGNTLPYTFGQGTKVEIK | 117 relative value (IL6R-BF648/IL6R-L = 100) | 110 relative value (IL6R-BF648/IL6R-L = 100) | 181 relative value (IL6R-BF648/IL6R-L = 100) | 133 relative value (IL6R-BF648/IL6R-L = 100) | 145 relative value (IL6R-BF648/IL6R-L = 100) | – | – | – |
| IL6R-BP121/IL6R-L (antibody, human IgG1, copies: 2 + 2) heavy: QVQLQESGPGLVKPSETLSLTCAVSGHSISHDHAWSWVRQPPGEGLEWIGFISYSGITNYNPSLQGRVTISRDNSKNTLYLQMNSLRAEDTAVYYCARSLARTTAMDYWGEGTLVTVSSASTKGPSVFPLAPSSKSTSGGTAALGCLVKDYFPEPVTVSWNSGALTSGVHTFPAVLQSSGLYSLSSVVTVPSSSLGTQTYICNVNHKPSNTKVDKKVEPKSCDKTHTCPPCPAPELLGGDSVFLFPPKPKDTLMISRTPEVTCVVVDVSHEDPEVKFNWYVDGVEVHNAKTKPREEQYNSTYRVVSVLTVLHQDWLNGKEYKCKVSNQALPAPIEKTISKAKGQPREPQVYTLPPSRDELTKNQVSLTCLVKGFYPSDIAVEWESNGQPENNYKTTPPVLDSDGSFFLYSKLTVDKSRWQQGNVFSCSVMHEALHNHYTQESLSLSP light: DIQMTQSPSSLSASVGDRVTITCRASQDISSYLNWYQQKPGKAPKLLIYYTSRLHSGVPSRFSGSGSGTDFTFTISSLQPEDIATYYCQQGNTLPYTFGQGTKVEIK | 118 relative value (IL6R-BF648/IL6R-L = 100) | 113 relative value (IL6R-BF648/IL6R-L = 100) | 155 relative value (IL6R-BF648/IL6R-L = 100) | 135 relative value (IL6R-BF648/IL6R-L = 100) | 157 relative value (IL6R-BF648/IL6R-L = 100) | – | – | – |
| IL6R-BP912/IL6R-L (antibody, human IgG1, copies: 2 + 2) heavy: QVQLQESGPGLVKPSETLSLTCAVSGHSISHDHAWSWVRQPPGEGLEWIGFISYSGITNYNPSLQGRVTISRDNSKNTLYLQMNSLRAEDTAVYYCARSLARTTAMDYWGEGTLVTVSSASTKGPSVFPLAPSSKSTSGGTAALGCLVKDYFPEPVTVSWNSGALTSGVHTFPAVLQSSGLYSLSSVVTVPSSSLGTQTYICNVNHKPSNTKVDKKVEPKSCDKTHTCPPCPAPELLGGDSVFLFPPKPKDTLMISRTPEVTCVVVDVSHEDPEVKFNWYVDGVEVHNAKTKPREEQYNSTYRVVSVLTVLHQDWLNGKEYKCKVSNKALPRPIEKTISKAKGQPREPQVYTLPPSRDELTKNQVSLTCLVKGFYPSDIAVEWESNGQPENNYKTTPPVLDSDGSFFLYSKLTVDKSRWQQGNVFSCSVMHEALHNHYTQESLSLSP light: DIQMTQSPSSLSASVGDRVTITCRASQDISSYLNWYQQKPGKAPKLLIYYTSRLHSGVPSRFSGSGSGTDFTFTISSLQPEDIATYYCQQGNTLPYTFGQGTKVEIK | 60 relative value (IL6R-BF648/IL6R-L = 100) | 103 relative value (IL6R-BF648/IL6R-L = 100) | 81 relative value (IL6R-BF648/IL6R-L = 100) | 93 relative value (IL6R-BF648/IL6R-L = 100) | 97 relative value (IL6R-BF648/IL6R-L = 100) | – | – | – |
